B1: APAF-97 (Apaf-1 residues 1-97, CARD), His-tagged (domain or fragment, UniProt O14727 1-97, looked up)
chain: MDAKARNCLLQHREALEKDIKTSYIMDHMISDGFLTISEEEKVRNEPTQQQRAAMLIKMILKKDNDSYVSFYNALLHEGYKDLAALLHDGIPVVSSS
notes: Apaf-1 residues 1-97 (caspase recruitment domain, CARD); also called APF-97; CARD of Apaf-1; source: E. coli BL21(DE3)pLysS, purified (Ni Sepharose beads); not shown: His tag, C-terminal, kept
B2: TCTP-GST (GST-tagged recombinant TCTP) (natural protein, human, UniProt P13693 1-172, looked up)
chain: MIIYRDLISHDEMFSDIYKIREIADGLCLEVEGKMVSRTEGNIDDSLIGGNASAEGPEGEGTESTVITGVDIVMNHHLQETSFTKEAYKKYIKDYMKSIKGKLEEQRPERVKPFMTGAAEQIKHILANFKNYQFFIGENMNPDGMVALLDYREDGVTPYMIFFKDGLEMEKC
notes: translationally controlled tumor protein (TCTP); also called GST-tagged TCTP; TCTP-GST protein; source: E. coli, purified (GST fusion protein purification kit)

Legend:
Assay in all cases: pull-down; His-tagged Apaf-1 variants or WDR immobilised on Handee spin column, incubated with TCTP-GST; eluates separated by SDS-PAGE and silver stained
Conditions in all cases: both partners purified
[1] = molecular target: B2
[2] = molecular target: T1, Full APAF-1 (residues 1-1194), His-tagged (UniProt O14727-3 1-1194)
T1 construct: Apaf-1, full length, printed length 1194 residues (residues 1-1194): CARD 1-97, CED-4 98-412, WD-40 repeats 413-1194; also called full-length Apaf-1; His-Apaf-1; source: E. coli BL21(DE3)pLysS, purified (Ni Sepharose beads); not shown: His tag, C-terminal, kept
T1 sequence (looked up): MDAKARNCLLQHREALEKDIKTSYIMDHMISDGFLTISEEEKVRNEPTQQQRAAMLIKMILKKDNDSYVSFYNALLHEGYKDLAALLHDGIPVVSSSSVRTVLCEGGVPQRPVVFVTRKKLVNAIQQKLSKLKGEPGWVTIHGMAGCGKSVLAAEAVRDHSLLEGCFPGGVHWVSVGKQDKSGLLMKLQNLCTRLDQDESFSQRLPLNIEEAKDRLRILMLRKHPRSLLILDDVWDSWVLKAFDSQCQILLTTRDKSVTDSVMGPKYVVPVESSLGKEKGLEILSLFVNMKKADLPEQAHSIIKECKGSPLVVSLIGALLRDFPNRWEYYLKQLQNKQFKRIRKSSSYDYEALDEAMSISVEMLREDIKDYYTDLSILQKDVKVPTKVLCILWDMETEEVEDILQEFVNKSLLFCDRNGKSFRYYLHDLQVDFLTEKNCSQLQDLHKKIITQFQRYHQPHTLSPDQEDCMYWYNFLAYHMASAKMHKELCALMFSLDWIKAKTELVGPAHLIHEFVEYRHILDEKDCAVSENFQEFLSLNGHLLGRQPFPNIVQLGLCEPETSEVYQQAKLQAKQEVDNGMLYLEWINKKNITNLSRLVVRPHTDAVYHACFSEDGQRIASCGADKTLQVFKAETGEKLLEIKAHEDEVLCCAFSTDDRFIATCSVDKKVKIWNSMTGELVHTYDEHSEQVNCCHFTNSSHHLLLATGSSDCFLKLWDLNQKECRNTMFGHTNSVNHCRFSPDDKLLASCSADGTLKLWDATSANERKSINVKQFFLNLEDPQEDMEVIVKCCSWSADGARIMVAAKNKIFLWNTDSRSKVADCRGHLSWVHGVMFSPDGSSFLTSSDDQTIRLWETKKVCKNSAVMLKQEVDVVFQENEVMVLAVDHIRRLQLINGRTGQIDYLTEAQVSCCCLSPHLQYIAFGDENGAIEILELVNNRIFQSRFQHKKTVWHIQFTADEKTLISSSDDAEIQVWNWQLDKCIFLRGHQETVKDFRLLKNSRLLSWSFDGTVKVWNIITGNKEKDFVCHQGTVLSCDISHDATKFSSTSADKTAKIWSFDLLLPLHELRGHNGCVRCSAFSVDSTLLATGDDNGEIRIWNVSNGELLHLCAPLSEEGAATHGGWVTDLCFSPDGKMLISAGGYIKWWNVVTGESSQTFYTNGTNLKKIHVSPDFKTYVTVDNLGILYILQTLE

[3] = molecular target: T2, APAF-530 (Apaf-1 residues 1-530), His-tagged (UniProt O14727-3 1-530)
T2 construct: Apaf-1 residues 1-530; source: E. coli BL21(DE3)pLysS, purified (Ni Sepharose beads); not shown: His tag, C-terminal, kept
T2 sequence (looked up): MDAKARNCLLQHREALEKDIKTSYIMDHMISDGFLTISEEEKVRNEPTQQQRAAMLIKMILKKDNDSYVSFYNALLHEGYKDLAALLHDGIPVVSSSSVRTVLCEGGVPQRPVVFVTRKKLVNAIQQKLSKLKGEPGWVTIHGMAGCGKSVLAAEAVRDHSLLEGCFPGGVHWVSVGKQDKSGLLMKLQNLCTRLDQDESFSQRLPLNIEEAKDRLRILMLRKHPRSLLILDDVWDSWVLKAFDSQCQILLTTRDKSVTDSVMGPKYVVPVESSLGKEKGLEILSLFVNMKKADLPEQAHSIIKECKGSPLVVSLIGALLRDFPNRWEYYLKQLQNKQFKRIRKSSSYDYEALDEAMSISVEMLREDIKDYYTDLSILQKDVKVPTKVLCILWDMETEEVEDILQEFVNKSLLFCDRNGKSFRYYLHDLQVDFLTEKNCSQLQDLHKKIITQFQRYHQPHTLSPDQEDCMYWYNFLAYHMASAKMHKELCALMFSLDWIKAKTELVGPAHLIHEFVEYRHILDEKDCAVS

[4] = molecular target: T3, APAF-420 (Apaf-1 residues 1-420), His-tagged (UniProt O14727-3 1-420)
T3 construct: Apaf-1 residues 1-420; source: E. coli BL21(DE3)pLysS, purified (Ni Sepharose beads); not shown: His tag, C-terminal, kept
T3 sequence (looked up): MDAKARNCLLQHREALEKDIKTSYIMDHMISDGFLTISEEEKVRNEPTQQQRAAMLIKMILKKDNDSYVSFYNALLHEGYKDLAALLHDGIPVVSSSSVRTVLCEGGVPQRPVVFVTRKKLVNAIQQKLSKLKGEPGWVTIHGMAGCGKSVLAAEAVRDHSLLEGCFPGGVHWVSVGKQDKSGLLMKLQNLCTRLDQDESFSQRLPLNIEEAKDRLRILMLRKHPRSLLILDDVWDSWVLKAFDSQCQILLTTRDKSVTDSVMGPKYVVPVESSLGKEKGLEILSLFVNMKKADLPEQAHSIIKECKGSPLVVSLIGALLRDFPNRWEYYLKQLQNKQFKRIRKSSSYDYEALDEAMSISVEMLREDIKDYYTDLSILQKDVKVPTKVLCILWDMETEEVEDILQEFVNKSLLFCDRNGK

Binder	binding result [1]	binding result [2]	binding result [3]	binding result [4]
B1	binds	–	–	–
B2	–	binds	binds	binds

— publication PMC4015309, “Interaction of translationally controlled tumor protein with Apaf-1 is involved in the development of chemoresistance in HeLa cells” (BMC Cancer, 2014)
